Reference: paper PMC5458677

Target: His-tagged full-length Anisakis simplex macrophage migration inhibitory factor (As-MIF, 1-121) (Anisakis simplex)
Assay: SPR

Substance: His-tagged human JAB1 (1-257) (from UniProt Q92905 1-257) (domain or fragment)
- Kd: 16.6 nM
